How the values were obtained:
[1] = molecular target: Caldendrin-C-terminus (Caldendrin-Ct, residues 137–298) (UniProt O88751); test: SPR; Biacore X-100, CM5 chip, ligand amine-coupled, 25°C, flow 10 µl/min; running buffer with 1 mM Mg2+/1 mM EGTA (column 'EGTA'); molar binding activity deduced from the dissociation phase
[2] = molecular target: Caldendrin-C-terminus (Caldendrin-Ct, residues 137–298) (UniProt O88751); test: SPR; Biacore X-100, CM5 chip, ligand amine-coupled, 25°C, flow 10 µl/min; running buffer with 1 mM Mg2+/500 µM Ca2+ (column 'Ca2+'); molar binding activity deduced from the dissociation phase
Caldendrin full length [3] = molecular target: Caldendrin full length (UniProt O88751); test: cross-linking + SEC; protein incubated with 0.01% glutaraldehyde, then Superdex 75 gel filtration
Caldendrin full length [4] = molecular target: Caldendrin full length (UniProt O88751); test: SPR; Biacore X-100, CM5 chip, ligand amine-coupled, 25°C, flow 10 µl/min; running buffer with 1 mM Mg2+/1 mM EGTA (column 'EGTA'); molar binding activity deduced from the dissociation phase
Caldendrin full length [5] = molecular target: Caldendrin full length (UniProt O88751); test: dynamic light scattering; Zetasizer Nano S, 25°C, 50 mM Tris, 100 mM KCl, Mg2+ with EGTA or with 50 µM Ca2+; monomer to dimer
Caldendrin full length [6] = molecular target: Caldendrin full length (UniProt O88751); test: SPR; Biacore X-100, CM5 chip, ligand amine-coupled, 25°C, flow 10 µl/min; running buffer with 1 mM Mg2+/500 µM Ca2+ (column 'Ca2+'); molar binding activity deduced from the dissociation phase
Caldendrin full length [7] = molecular target: Caldendrin full length (UniProt O88751); test: SEC; Superdex 75, ÄKTA FPLC, 50 mM Tris, 100 mM KCl, 500 µM Mg2+ with 200 µM EGTA or 100 µM Ca2+; monomer to dimer

Sequence of Caldendrin-C-terminus (Caldendrin-Ct, residues 137–298), O88751 137-298 (domain or fragment; other documents disagree on this pair) (O88751 137-298): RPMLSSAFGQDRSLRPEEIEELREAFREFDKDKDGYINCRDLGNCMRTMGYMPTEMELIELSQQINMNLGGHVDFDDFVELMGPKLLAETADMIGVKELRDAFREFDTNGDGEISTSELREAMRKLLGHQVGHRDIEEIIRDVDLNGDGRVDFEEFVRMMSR

Substance: Caldendrin-C-terminus (Caldendrin-Ct, residues 137–298), O88751 137-298 (domain or fragment; other documents disagree on this pair)
- molar binding activity [1]: 0.0541
- molar binding activity [2]: 0.0373

Substance: Caldendrin full length (from UniProt O88751 1-298) (natural protein)
- stoichiometry N (Caldendrin full length [3]): 2
- molar binding activity (Caldendrin full length [4]): 0.0215
- stoichiometry N (Caldendrin full length [5]): 2
- molar binding activity (Caldendrin full length [6]): 0.0757
- stoichiometry N (Caldendrin full length [7]): 2
